Experiments:
[1] = biological target: T1, monovalent hVISTA-ECD (amino acids 32-193 of SEQ ID NO: 1 with a 7xHis tail) (human, UniProt Q9H7M9 33-193); experiment: SPR 37C, Ab on Protein A, hVISTA-ECD 50-5 nM, pH 6.0, average
T1 construct: analyte of the SPR assays; also called huVISTA-His; human VISTA-ECD
Description: Binding of several preparations of each of the ‘029 progeny clones and of the parent ‘029 antibodies, formatted as IgG1.3 antibodies, to human VISTA at pH 6.0 and 7.4 was measured by Surface plasmon resonance (SPR). SPR analysis was performed to measure koff and KD binding affinity measurements for VISTA Abs at acidic and neutral pHs using a Biacore® T100 instrument (GE Healthcare). […] Antibodies were diluted to 25 nM in PBST pH 7.4, and were captured across active biosensor flow cells at 5 ul/min for 60 seconds. A concentration series of 50 - 5 nM monovalent hVISTA-ECD (SEQ ID NO: 325) was prepared in pH 7.4 and 6.0 running buffers, and was injected over the captured antibodies at 40 ul/min to measure association and dissociation. Two 15 second injections of 10 mM glycine pH 1.5 were used to regenerate the Protein A capture surface between assay cycles. Rate constants ka (kₒₙ) and kd (koff) were derived from reference flow cell and 0 nM blank-subtracted sensorgrams, and were fit to a 1:1 binding model in Biacore® T200 Evaluation Software v.2.0. The affinity constant, KD was calculated as the ratio of rate constants koff/kₒₙ for each VISTA antibody.

hVISTA-ECD 6-His tag = biological target: T2, hVISTA-ECD 6-His tag (human, UniProt Q9H7M9 33-193); experiment: SPR, Ab on Protein A, hVISTA analyte, pH 6.0
T2 construct: also called monovalent hVISTA-ECD; human VISTA
T2 sequence (Q9H7M9 other isoform, or with tags, fused parts or gaps limits assumed): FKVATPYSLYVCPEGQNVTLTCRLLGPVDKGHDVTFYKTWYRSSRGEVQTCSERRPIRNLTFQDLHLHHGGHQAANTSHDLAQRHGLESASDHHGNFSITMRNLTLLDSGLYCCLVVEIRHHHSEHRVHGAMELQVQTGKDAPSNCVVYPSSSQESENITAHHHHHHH

T1 sequence (Q9H7M9 other isoform, or with tags, fused parts or gaps limits assumed): as above

| Kd [1] [µM] | koff [1] [s⁻¹] | kon [1] [M⁻¹ s⁻¹] | Kd (hVISTA-ECD 6-His tag) [µM] | koff (hVISTA-ECD 6-His tag) [s⁻¹] | kon (hVISTA-ECD 6-His tag) [M⁻¹ s⁻¹] | Binder |
| --- | --- | --- | --- | --- | --- | --- |
| 0.019 | 0.017 | 890000 | – | – | – | P1-068757 (antibody, human IgG1, kappa, V domains shown, IgG1.3; also called P1-068757-9) VH: EVQLVESGGGLVQPGKSLRLSCAASGFTLEDEAMHWVRQAPGKGLEWVSGINWNSEEIGYADSVKGRFTISRDNAKNSLYLQMNSLRTEDTALYYCAKVPGYSGGWIDAEDDWGQGTMVTVSS VL: not shown |
| – | – | – | 0.096 | 0.058 | 600000 | P1-068759 (antibody, human IgG1, kappa, V domains shown, also called P1-068759-9; 029 progeny) VH: EVQLVESGGGLVQPGKSLRLSCAASGFTLEDEAMHWVRQAPGKGLEWVSGIDWNSENIGYADSVKGRFTISRDNAKNSLYLQMNSLRTEDTALYYCAKVPGYSGGWIDAEDDWGQGTMVTVSS VL: not shown |
| 0.055 | 0.04 | 810000 | – | – | – | P1-068769 (antibody, human IgG1, kappa, V domains shown, IgG1.3) VH: EVQLVESGGGLVQPGKSLRLSCAASGFTLEDEAMHWVRQAPGKGLEWVSGINWNSDHIGYADSVKGRFTISRDNAKNSLYLQMNSLRTEDTALYYCAKVPGYSGGWIDAEDDWGQGTMVTVSS VL: not shown |
| 0.019 | 0.007 | 370000 | – | – | – | P1-068765 (antibody, human IgG1, kappa, V domains shown, IgG1.3; also called P1-068765-10) VH: EVQLVESGGGLVQPGKSLRLSCAASGFTDEDYAMHWVRQAPGKGLEWVSGINWNSEEIGYADSVKGRFTISRDNAKNSLYLQMNSLRTEDTALYYCAKVPGYSGGWIDAEDDWGQGTMVTVSS VL: not shown |
| 0.0094 | 0.0058 | 610000 | – | – | – | P1-069073 (antibody, human IgG1, kappa, V domains shown, IgG1.3) VH: EVQLVESGGGLVQPGKSLRLSCAASGFTLEDEAMHWVRQAPGKGLEWVSGINWNSAEIGYADSVKGRFTISRDNAKNSLYLQMNSLRTEDTALYYCAKVPGYSGGWIDAEDVWGQGTMVTVSS VL: not shown |
| 0.06 | 0.08 | 1.3e+06 | – | – | – | P1-068759 (antibody, human IgG1, kappa, V domains shown, IgG1.3; also called P1-068759-9) VH: EVQLVESGGGLVQPGKSLRLSCAASGFTLEDEAMHWVRQAPGKGLEWVSGIDWNSENIGYADSVKGRFTISRDNAKNSLYLQMNSLRTEDTALYYCAKVPGYSGGWIDAEDDWGQGTMVTVSS VL: not shown |
| 0.0094 | 0.0029 | 300000 | – | – | – | P1-068773 (antibody, human IgG1, kappa, V domains shown, IgG1.3) VH: EVQLVESGGGLVQPGKSLRLSCAASGFTLEDYAMHWVRQAPGKGLEWVSGIDWNSDNIGYADSVKGRFTISRDNAKNSLYLQMNSLRTEDTALYYCAKVPGYSGGWIDAEDDWGQGTMVTVSS VL: not shown |
| 0.0048 | 0.0016 | 340000 | – | – | – | P1-069059 (antibody, human IgG1, kappa, V domains shown, IgG1.3) VH: EVQLVESGGGLVQPGKSLRLSCAASGFTLEDYAMHWVRQAPGKGLEWVSGINWNSDHIGYADSVKGRFTISRDNAKNSLYLQMNSLRTEDTALYYCAKVPGYSGGWIDAEDDWGQGTMVTVSS VL: not shown |
| 0.023 | 0.047 | 1.8e+06 | – | – | – | P1-068775 (antibody, human IgG1, kappa, V domains shown, IgG1.3; also called P1-068775-8) VH: EVQLVESGGGLVQPGKSLRLSCAASGFTLEDEAMHWVRQAPGKGLEWVSGIDWNSEEIGYADSVKGRFTISRDNAKNSLYLQMNSLRTEDTALYYCAKVPGYSHGWIDAEDDWGQGTMVTVSS VL: not shown |

From patent publication US20230192860A1 (Bristol-Myers Squibb, published 2023)
